Measurements: IntAct's records for PubMed 31515488

B1: Protein LDOC1 (Homo sapiens), O95751 (parent)
chain: MVDELVLLLHALLMRHRALSIENSQLMEQLRLLVCERASLLRQVRPPSCPVPFPETFNGESSRLPEFIVQTASYMLVNENRFCNDAMKVAFLISLLTGEAEEWVVPYIEMDSPILGDYRAFLDEMKQCFGWDDDEDDDDEEEEDDY
B2: Keratin, type I cytoskeletal 20 (Homo sapiens), P35900 (parent)
chain: MDFSRRSFHRSLSSSLQAPVVSTVGMQRLGTTPSVYGGAGGRGIRISNSRHTVNYGSDLTGGGDLFVGNEKMAMQNLNDRLASYLEKVRTLEQSNSKLEVQIKQWYETNAPRAGRDYSAYYRQIEELRSQIKDAQLQNARCVLQIDNAKLAAEDFRLKYETERGIRLTVEADLQGLNKVFDDLTLHKTDLEIQIEELNKDLALLKKEHQEEVDGLHKHLGNTVNVEVDAAPGLNLGVIMNEMRQKYEVMAQKNLQEAKEQFERQTAVLQQQVTVNTEELKGTEVQLTELRRTSQSLEIELQSHLSMKESLEHTLEETKARYSSQLANLQSLLSSLEAQLMQIRSNMERQNNEYHILLDIKTRLEQEIATYRRLLEGEDVKTTEYQLSTLEERDIKKTRKIKTVVQEVVDGKVVSSEVKEVEENI
B3: Peroxisomal bifunctional enzyme (Homo sapiens), Q08426 (parent)
chain: MAEYTRLHNALALIRLRNPPVNAISTTLLRDIKEGLQKAVIDHTIKAIVICGAEGKFSAGADIRGFSAPRTFGLTLGHVVDEIQRNEKPVVAAIQGMAFGGGLELALGCHYRIAHAEAQVGLPEVTLGLLPGARGTQLLPRLTGVPAALDLITSGRRILADEALKLGILDKVVNSDPVEEAIRFAQRVSDQPLESRRLCNKPIQSLPNMDSIFSEALLKMRRQHPGCLAQEACVRAVQAAVQYPYEVGIKKEEELFLYLLQSGQARALQYAFFAERKANKWSTPSGASWKTASARPVSSVGVVGLGTMGRGIVISFARARIPVIAVDSDKNQLATANKMITSVLEKEASKMQQSGHPWSGPKPRLTSSVKELGGVDLVIEAVFEEMSLKKQVFAELSAVCKPEAFLCTNTSALDVDEIASSTDRPHLVIGTHFFSPAHVMKLLEVIPSQYSSPTTIATVMNLSKKIKKIGVVVGNCFGFVGNRMLNPYYNQAYFLLEEGSKPEEVDQVLEEFGFKMGPFRVSDLAGLDVGWKSRKGQGLTGPTLLPGTPARKRGNRRYCPIPDVLCELGRFGQKTGKGWYQYDKPLGRIHKPDPWLSKFLSRYRKTHHIEPRTISQDEILERCLYSLINEAFRILGEGIAASPEHIDVVYLHGYGWPRHKGGPMFYASTVGLPTVLEKLQKYYRQNPDIPQLEPSDYLKKLASQGNPPLKEWQSLAGSPSSKL
partner: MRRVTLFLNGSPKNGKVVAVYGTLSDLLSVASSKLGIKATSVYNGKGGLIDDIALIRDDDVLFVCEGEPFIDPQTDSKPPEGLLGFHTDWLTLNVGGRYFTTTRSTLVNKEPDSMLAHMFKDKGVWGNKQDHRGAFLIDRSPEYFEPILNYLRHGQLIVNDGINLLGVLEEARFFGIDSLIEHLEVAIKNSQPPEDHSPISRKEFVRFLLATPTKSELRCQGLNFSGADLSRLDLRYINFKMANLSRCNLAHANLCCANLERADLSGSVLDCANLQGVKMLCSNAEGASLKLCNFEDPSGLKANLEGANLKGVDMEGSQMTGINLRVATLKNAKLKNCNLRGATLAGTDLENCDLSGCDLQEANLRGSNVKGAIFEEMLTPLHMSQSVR

Variants of: B1
Details: with ch033_human C8orf33, Q9H7E9
Chain of ch033_human C8orf33, Q9H7E9 (Q9H7E9 whole entry): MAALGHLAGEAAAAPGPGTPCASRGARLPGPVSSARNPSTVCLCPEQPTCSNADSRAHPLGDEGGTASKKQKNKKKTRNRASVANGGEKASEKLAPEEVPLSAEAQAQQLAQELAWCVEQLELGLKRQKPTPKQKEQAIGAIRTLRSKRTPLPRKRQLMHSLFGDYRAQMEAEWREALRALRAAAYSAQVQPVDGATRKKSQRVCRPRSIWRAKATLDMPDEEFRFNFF

Row | Variant | effect of a mutation on the interaction
1 | L12H | with no effect

Variants of: B1
Details: with KRT15, P19012
Target sequence in this assay (P19012 whole entry): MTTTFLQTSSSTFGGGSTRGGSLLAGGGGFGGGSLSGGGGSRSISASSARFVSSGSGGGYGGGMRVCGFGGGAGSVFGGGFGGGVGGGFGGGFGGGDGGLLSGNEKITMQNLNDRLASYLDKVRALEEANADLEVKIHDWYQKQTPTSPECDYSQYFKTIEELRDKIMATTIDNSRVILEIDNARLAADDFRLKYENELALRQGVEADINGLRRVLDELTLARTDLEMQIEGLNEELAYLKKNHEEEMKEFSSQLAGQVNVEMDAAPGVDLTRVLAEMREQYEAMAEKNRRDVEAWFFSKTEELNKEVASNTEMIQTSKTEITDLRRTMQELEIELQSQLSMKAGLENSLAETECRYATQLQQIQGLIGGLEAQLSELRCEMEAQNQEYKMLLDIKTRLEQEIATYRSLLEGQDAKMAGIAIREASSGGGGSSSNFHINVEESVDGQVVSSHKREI

Row | Variant | effect of a mutation on the interaction
2 | L12H | with no effect

Variants of: B1
Details: with atf4_human ATF4, P18848
Chain of atf4_human ATF4, P18848 (P18848 whole entry): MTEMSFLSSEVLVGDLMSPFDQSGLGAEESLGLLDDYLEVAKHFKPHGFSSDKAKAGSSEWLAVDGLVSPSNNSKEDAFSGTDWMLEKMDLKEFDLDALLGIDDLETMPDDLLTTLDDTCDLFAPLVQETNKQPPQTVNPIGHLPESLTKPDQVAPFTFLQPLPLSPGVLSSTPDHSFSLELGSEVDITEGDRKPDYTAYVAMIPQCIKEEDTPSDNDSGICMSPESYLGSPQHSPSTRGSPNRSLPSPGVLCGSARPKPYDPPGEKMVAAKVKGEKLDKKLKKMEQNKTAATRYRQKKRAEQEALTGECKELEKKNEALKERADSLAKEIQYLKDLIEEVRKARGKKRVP

Row | Variant | effect of a mutation on the interaction
3 | L12H | with no effect

Variants of: B1
Details: with bard1_human BARD1, Q99728

Row | Variant | effect of a mutation on the interaction
4 | L12H | disrupting interaction strength

Variants of: B1
Details: with prp31_human PRPF31, Q8WWY3

Row | Variant | effect of a mutation on the interaction
5 | L12H | disrupting interaction strength

Variants of: B1
Details: with prc1_human PRC1, O43663
Chain of prc1_human PRC1, O43663 (O43663 whole entry): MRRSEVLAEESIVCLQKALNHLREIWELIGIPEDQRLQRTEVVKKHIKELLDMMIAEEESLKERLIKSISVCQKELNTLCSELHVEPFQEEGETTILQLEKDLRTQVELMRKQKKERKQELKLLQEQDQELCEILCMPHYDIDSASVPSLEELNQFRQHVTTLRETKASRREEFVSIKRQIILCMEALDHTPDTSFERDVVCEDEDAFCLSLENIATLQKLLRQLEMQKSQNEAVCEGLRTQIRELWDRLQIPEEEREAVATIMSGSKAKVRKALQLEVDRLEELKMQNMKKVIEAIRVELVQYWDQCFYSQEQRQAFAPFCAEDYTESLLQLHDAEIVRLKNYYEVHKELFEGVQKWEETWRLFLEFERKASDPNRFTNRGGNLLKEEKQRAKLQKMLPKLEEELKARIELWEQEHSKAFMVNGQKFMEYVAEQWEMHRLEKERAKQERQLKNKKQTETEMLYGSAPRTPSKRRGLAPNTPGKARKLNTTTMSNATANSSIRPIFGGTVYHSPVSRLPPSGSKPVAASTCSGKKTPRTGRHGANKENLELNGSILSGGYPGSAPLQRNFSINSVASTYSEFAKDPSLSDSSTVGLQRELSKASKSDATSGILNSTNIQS

Row | Variant | effect of a mutation on the interaction
6 | L12H | disrupting interaction strength

Variants of: B1
Details: with zbt24_human ZBTB24, O43167
Chain of zbt24_human ZBTB24, O43167 (O43167 whole entry): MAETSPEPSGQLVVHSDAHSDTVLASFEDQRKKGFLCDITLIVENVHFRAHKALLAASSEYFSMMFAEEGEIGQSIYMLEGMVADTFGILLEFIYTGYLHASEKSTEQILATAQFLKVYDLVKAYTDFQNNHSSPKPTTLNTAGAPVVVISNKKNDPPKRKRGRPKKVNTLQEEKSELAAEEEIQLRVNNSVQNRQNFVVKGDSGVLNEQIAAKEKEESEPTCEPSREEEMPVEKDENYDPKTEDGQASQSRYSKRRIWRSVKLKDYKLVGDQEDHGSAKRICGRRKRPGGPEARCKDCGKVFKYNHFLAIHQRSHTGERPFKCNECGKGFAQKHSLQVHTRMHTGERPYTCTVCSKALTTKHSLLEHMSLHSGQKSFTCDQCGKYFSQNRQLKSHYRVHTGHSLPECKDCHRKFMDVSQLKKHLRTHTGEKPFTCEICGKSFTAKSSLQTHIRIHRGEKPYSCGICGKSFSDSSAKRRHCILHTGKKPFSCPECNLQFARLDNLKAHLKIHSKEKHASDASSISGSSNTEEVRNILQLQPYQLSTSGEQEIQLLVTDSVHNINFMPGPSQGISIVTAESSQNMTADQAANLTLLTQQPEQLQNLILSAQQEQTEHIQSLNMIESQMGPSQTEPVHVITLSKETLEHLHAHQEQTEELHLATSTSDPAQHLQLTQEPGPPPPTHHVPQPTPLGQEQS

Row | Variant | effect of a mutation on the interaction
7 | L12H | disrupting interaction strength

Variants of: B1
Details: with vatg1_human ATP6V1G1, O75348
Chain of vatg1_human ATP6V1G1, O75348 (O75348 whole entry): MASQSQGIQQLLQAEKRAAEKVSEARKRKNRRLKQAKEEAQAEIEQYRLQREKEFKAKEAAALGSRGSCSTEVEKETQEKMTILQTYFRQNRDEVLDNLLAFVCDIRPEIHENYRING

Row | Variant | effect of a mutation on the interaction
8 | L12H | disrupting interaction strength

Variants of: B1
Details: with exoc7_human EXOC7, Q9UPT5
Chain of exoc7_human EXOC7, Q9UPT5 (Q9UPT5 whole entry): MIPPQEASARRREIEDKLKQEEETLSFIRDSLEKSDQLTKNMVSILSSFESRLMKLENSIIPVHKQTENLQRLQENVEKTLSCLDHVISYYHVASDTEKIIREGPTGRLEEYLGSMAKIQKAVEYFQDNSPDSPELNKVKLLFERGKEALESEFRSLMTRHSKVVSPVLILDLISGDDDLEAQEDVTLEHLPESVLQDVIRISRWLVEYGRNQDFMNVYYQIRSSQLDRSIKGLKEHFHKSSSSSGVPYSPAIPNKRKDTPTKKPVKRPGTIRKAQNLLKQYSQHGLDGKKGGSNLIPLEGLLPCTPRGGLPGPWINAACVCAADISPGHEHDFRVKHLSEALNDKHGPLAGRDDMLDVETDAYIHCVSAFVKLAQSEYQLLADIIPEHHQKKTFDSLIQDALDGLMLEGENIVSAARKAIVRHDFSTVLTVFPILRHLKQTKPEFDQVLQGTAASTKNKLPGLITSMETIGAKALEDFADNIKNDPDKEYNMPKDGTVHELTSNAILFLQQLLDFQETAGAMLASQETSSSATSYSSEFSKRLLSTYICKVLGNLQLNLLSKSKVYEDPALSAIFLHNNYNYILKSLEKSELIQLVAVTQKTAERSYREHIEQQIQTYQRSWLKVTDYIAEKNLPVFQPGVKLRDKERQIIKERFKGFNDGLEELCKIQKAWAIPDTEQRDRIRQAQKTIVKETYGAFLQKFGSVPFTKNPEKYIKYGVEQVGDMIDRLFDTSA

Row | Variant | effect of a mutation on the interaction
9 | L12H | disrupting interaction strength

Variants of: B1
Details: with tha10_human THAP10, Q9P2Z0
Chain of tha10_human THAP10, Q9P2Z0 (Q9P2Z0 whole entry): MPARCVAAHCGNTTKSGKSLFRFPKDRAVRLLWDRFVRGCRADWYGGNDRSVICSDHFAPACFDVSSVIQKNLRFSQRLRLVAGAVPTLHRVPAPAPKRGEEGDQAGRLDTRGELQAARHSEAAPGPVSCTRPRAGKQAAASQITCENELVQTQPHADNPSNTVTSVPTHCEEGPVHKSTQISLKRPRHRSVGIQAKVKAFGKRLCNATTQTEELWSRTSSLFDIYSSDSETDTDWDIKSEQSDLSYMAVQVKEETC

Row | Variant | effect of a mutation on the interaction
10 | L12H | disrupting interaction strength

Variants of: B1
Details: with zn250_human ZNF250, P15622

Row | Variant | effect of a mutation on the interaction
11 | L12H | disrupting interaction strength

Variants of: B1
Details: with smrd1_human SMARCD1, Q96GM5
Chain of smrd1_human SMARCD1, Q96GM5 (Q96GM5 whole entry): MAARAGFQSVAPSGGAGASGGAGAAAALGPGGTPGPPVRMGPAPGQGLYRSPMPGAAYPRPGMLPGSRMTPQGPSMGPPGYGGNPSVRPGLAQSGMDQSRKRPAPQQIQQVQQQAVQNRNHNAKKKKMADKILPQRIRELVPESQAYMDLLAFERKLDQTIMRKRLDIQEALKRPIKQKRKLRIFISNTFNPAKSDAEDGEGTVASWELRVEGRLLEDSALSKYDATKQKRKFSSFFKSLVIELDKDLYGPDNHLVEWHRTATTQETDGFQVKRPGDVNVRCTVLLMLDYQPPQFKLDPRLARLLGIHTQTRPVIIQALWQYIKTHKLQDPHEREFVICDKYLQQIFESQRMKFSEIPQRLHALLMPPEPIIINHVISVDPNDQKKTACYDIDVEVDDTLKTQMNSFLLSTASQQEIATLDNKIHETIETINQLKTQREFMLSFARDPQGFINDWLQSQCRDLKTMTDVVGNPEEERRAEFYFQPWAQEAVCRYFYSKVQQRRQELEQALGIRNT

Row | Variant | effect of a mutation on the interaction
12 | L12H | disrupting interaction strength

Variants of: B1
Details: with mmta2_human MMTAG2, Q9BU76
Chain of mmta2_human MMTAG2, Q9BU76 (Q9BU76 whole entry): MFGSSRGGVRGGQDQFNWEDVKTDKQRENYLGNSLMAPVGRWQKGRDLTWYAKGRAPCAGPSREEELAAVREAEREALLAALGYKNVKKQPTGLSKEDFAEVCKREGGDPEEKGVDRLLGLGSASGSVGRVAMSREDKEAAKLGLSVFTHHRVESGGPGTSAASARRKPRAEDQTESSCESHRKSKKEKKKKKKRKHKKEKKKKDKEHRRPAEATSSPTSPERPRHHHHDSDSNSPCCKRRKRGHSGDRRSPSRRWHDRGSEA

Row | Variant | effect of a mutation on the interaction
13 | L12H | disrupting interaction strength

Variants of: B1
Details: with tnnt1_human TNNT1, P13805

Row | Variant | effect of a mutation on the interaction
14 | L12H | disrupting interaction strength

Variants of: B1
Details: with aebp2_human AEBP2, Q6ZN18
Chain of aebp2_human AEBP2, Q6ZN18 (Q6ZN18 whole entry): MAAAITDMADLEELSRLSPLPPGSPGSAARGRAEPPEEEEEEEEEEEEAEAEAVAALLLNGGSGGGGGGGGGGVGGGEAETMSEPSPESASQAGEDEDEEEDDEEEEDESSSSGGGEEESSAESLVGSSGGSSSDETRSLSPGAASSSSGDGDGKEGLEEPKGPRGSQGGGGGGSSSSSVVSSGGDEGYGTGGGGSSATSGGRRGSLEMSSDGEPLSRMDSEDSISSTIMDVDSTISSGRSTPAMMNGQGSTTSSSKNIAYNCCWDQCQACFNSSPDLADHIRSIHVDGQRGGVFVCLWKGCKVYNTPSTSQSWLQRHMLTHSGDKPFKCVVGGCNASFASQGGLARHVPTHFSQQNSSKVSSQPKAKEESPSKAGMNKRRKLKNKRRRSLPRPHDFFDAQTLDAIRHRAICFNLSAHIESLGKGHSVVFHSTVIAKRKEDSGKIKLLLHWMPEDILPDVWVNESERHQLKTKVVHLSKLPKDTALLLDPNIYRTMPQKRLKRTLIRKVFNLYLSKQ

Row | Variant | effect of a mutation on the interaction
15 | L12H | with no effect

Variants of: B2
Details: with KRT15, P19012
Target sequence in this assay (P19012 whole entry): as the sequence (P19012 whole entry) above

Row | Variant | effect of a mutation on the interaction
16 | MDFSRRSFHRSLSSSLQAPVVSTVGMQRLGTTPSVYGGAGGRGIRISNSRHTVNYGSDLTGGGDLFVGNEKMAMQNLNDRLASYLEKVRTLEQSNSKLEVQIKQWYETNAPRAGRDYSAYYRQIEELRSQIKDAQLQNARCVLQIDNAKLAAEDFRLKYETERGIRLTVEADLQGLNKVFDDLTLHKTDLEIQIEELNKDLALLKKEHQEEVDGLHKHLGNTVNVEVDAAPGLNLGVIMNEMRQKYEVMAQKNLQEAKEQFERQTAVLQQQVTVNTEELKGTEVQLTELRRTSQSLEIELQSHLSMKEYLEHTLEETKARYSSQLANLQSLLSSLEAQLMQIRSNMERQNNEYHILLDIKTRLEQEIATYRRLLEGEDVKTTEYQLSTLEERDIKKTRKIKTVVQEVVDGKVVSSEVKEVEENI [S309Y] | with no effect
17 | MDFSRRSFHRSLSSSLQAPVVSTVGMQRLGTTPSVYGGAGGRGIRISNSRHTVNYGSDLTGGGDLFVGNEKMAMQNLNDRLASYLEKVRTLEQSNSKLEVQIKQWYETNAPRAGRDYSAYYRQIEELRNQIKDAQLQNARCVLQIDNAKLAAEDFRLKYETERGIRLTVEADLQGLNKVFDDLTLHKTDLEIQIEELNKDLALLKKEHQEEVDGLHKHLGNTVNVEVDAAPGLNLGVIMNEMRQKYEVMAQKNLQEAKEQFERQTAVLQQQVTVNTEELKGTEVQLTELRRTSQSLEIELQSHLSMKESLEHTLEETKARYSSQLANLQSLLSSLEAQLMQIRSNMERQNNEYHILLDIKTRLEQEIATYRRLLEGEDVKTTEYQLSTLEERDIKKTRKIKTVVQEVVDGKVVSSEVKEVEENI [S129N] | with no effect

Variants of: B2
Details: with vime_human VIM

Row | Variant | effect of a mutation on the interaction
18 | MDFSRRSFHRSLSSSLQAPVVSTVGMQRLGTTPSVYGGAGGRGIRISNSRHTVNYGSDLTGGGDLFVGNEKMAMQNLNDRLASYLEKVRTLEQSNSKLEVQIKQWYETNAPRAGRDYSAYYRQIEELRSQIKDAQLQNARCVLQIDNAKLAAEDFRLKYETERGIRLTVEADLQGLNKVFDDLTLHKTDLEIQIEELNKDLALLKKEHQEEVDGLHKHLGNTVNVEVDAAPGLNLGVIMNEMRQKYEVMAQKNLQEAKEQFERQTAVLQQQVTVNTEELKGTEVQLTELRRTSQSLEIELQSHLSMKEYLEHTLEETKARYSSQLANLQSLLSSLEAQLMQIRSNMERQNNEYHILLDIKTRLEQEIATYRRLLEGEDVKTTEYQLSTLEERDIKKTRKIKTVVQEVVDGKVVSSEVKEVEENI [S309Y] | with no effect
19 | MDFSRRSFHRSLSSSLQAPVVSTVGMQRLGTTPSVYGGAGGRGIRISNSRHTVNYGSDLTGGGDLFVGNEKMAMQNLNDRLASYLEKVRTLEQSNSKLEVQIKQWYETNAPRAGRDYSAYYRQIEELRNQIKDAQLQNARCVLQIDNAKLAAEDFRLKYETERGIRLTVEADLQGLNKVFDDLTLHKTDLEIQIEELNKDLALLKKEHQEEVDGLHKHLGNTVNVEVDAAPGLNLGVIMNEMRQKYEVMAQKNLQEAKEQFERQTAVLQQQVTVNTEELKGTEVQLTELRRTSQSLEIELQSHLSMKESLEHTLEETKARYSSQLANLQSLLSSLEAQLMQIRSNMERQNNEYHILLDIKTRLEQEIATYRRLLEGEDVKTTEYQLSTLEERDIKKTRKIKTVVQEVVDGKVVSSEVKEVEENI [S129N] | with no effect

Variants of: B3
Details: with kctd9_human KCTD9, Q7L273

Row | Variant | effect of a mutation on the interaction
20 | I646T | disrupting interaction strength
21 | R483Q | disrupting interaction strength
22 | S703F | with no effect
23 | L715S | disrupting interaction strength
